Measured values from patent US20200109188A1 (AstraZeneca / MedImmune, published 2020).

Assays:
Test in all cases: cell-based or functional assay
[1] = molecular target: HA of ca A/Brit. Columbia/CN-6/04 (H7N3-LP) virus (influenza A virus)
[2] = molecular target: HA of ca A/Sydney/5/97 (H3N2) virus (influenza A virus)
[3] = molecular target: HA of A/Victoria/3/75 (H3N2) virus (influenza A virus, UniProt P03435 17-567)
[4] = molecular target: HA of A/Wisconsin/67/05 (H3N2) virus (influenza A virus)
[5] = molecular target: HA of ca A/Netherlands/219/03 (H7N7) virus (influenza A virus)
[6] = molecular target: HA of ca A/Texas/36/91 (H1N1) virus (influenza A virus)
[7] = molecular target: HA of ca A/Perth/16/09 (H3N2) virus (influenza A virus)
[8] = molecular target: HA of A/Fort Monmouth/1/47 (H1N1) virus (influenza A virus)
[9] = molecular target: HA of ca A/Beijing/262/95 (H1N1) virus (influenza A virus)
[10] = molecular target: HA of ca A/teal/Hong Kong/W312/97 (H6N1) virus (influenza A virus)
[11] = molecular target: HA of A/Wyoming/03/03 (H3N2) virus (influenza A virus)
[12] = molecular target: HA of ca A/Hong Kong/213/03 (H5N1) virus (influenza A virus)
[13] = molecular target: HA of ca A/Panama/2007/99 (H3N2) virus (influenza A virus)

Chain of HA of A/Victoria/3/75 (H3N2) virus (P03435 17-567 limits assumed): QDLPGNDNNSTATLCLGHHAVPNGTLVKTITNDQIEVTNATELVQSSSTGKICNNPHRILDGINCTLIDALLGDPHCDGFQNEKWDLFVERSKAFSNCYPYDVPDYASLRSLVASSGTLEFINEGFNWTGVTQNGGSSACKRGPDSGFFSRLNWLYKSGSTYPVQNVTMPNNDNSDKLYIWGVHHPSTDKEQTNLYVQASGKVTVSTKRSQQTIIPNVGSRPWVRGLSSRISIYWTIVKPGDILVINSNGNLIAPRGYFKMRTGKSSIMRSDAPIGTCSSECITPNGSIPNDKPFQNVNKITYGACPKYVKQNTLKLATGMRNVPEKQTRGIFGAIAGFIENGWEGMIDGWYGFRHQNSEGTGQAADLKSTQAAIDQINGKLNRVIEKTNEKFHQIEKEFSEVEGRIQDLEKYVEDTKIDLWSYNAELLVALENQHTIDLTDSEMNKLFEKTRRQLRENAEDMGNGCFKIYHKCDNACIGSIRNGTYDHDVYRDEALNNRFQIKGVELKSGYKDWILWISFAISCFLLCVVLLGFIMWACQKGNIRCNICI

B1: Antibody 3 (antibody, V domains shown)
VH: QVQLQESGPGLVKPSQTLSLTCAISGDSVSSNNAVWNWIRQSPSRGLEWLGRTYYRSKWYNDYAESVKSRITVNPDTSKNQFSLHLKSVTPEDTAVFYCVRSGHITVFGVNVDAFDMWGQGTMVTVSS
VL: DIQMTQSPSSLSASVGDRVTITCRTSQSLSSYLHWYQQKPGKAPKLLIYAASSLQSGVPSRFSGSGSGTDFTLTISSLQPEDFATYYCQQSRTFGQGTKVEIK
Neutralization IC50, H7-BC04 [1]: 4.72 µg/mL | Neutralization IC50, H3-Syd97 [2]: 3.75 µg/mL | Neutralization IC50, H3-Vic75 [3]: 0.75 µg/mL | Neutralization IC50, H3-Wl05 [4]: 2.44 µg/mL | Neutralization IC50, H7-NLD03 [5]: 4.78 µg/mL | Neutralization IC50, H1-TX91 [6]: 0.6 µg/mL | Neutralization IC50, H3-Perth09 [7]: 1.49 µg/mL | Neutralization IC50, H1-FM47 [8]: 0.92 µg/mL | Neutralization IC50, H1-BJ95 [9]: 3.41 µg/mL | Neutralization IC50, H6-HK97 [10]: 1.77 µg/mL | Neutralization IC50, H3-Wy03 [11]: 0.63 µg/mL | Neutralization IC50, H5-HK03 [12]: 4.64 µg/mL | Neutralization IC50, H3-Pa99 [13]: 17.7 µg/mL
